Values quoted from earlier work as cited in article PMC12818765.

What was measured:
His8 = His8 (UniProt position 90, STKKLHKEPAT); conditions: not stated
His121 = His121 (UniProt position 203, KPNNTHEQHLR); conditions: not stated
His124 = His124 (UniProt position 206, NTHEQHLRKSE); conditions: not stated
His46 = His46 (UniProt position 128, TPETKHPKKGV); conditions: not stated
Lys97 = Lys97 (UniProt position 115, VNCAKKIVSDG)
Lys96 = Lys96 (UniProt position 114, SVNCAKKIVSD)
Asp101 = Asp101 (UniProt position 119, KKIVSDGNGMN)
Tyr53 = Tyr53 (UniProt position 71, DGSTDYGILQI)
Asp18 = Asp18 (UniProt position 36, KRHGLDNYRGY)
Lys116 = Lys116 (UniProt position 134, WRNRCKGTDVQ)
Lys1 = Lys1 (UniProt position 19, LAALGKVFGRC)
Tyr20 = Tyr20 (UniProt position 38, HGLDNYRGYSL)
Lys33 = Lys33 (UniProt position 51, WVCAAKFESNF)
Asp87 = Asp87 (UniProt position 105, ALLSSDITASV)
Tyr23 = Tyr23 (UniProt position 41, DNYRGYSLGNW)
Asp52 = Asp52 (UniProt position 70, TDGSTDYGILQ)
His15 = His15 (UniProt position 33, AAMKRHGLDNY)
Glu35 = Glu35 (UniProt position 53, CAAKFESNFNT)
Asp66 = Asp66 (UniProt position 84, RWWCNDGRTPG)
Asp119 = Asp119 (UniProt position 137, RCKGTDVQAWI)
Cterm129 = Cterm129 (UniProt position 147, IRGCRL-----)
Asp48 = Asp48 (UniProt position 66, TNRNTDGSTDY)
Lys13 = Lys13 (UniProt position 31, LAAAMKRHGLD)
Glu7 = Glu7 (UniProt position 25, VFGRCELAAAM)
Nterm1 = Nterm1 (UniProt position 19, LAALGKVFGRC)
Glu101 = Glu101 (UniProt position 183, GKMVNEALVRQ); conditions: not stated
Glu52 = Glu52 (UniProt position 134, PKKGVEKYGPE); conditions: not stated
Glu67 = Glu67 (UniProt position 149, TKKMVENAKKI); conditions: not stated
Glu73 = Glu73 (UniProt position 155, NAKKIEVEFDK); conditions: not stated
Asp95 = Asp95 (UniProt position 177, AYIYADGKMVN); conditions: not stated
Glu135 = Glu135 (UniProt position 217, AQAKKEKLNIW); conditions: not stated
Glu10 = Glu10 (UniProt position 92, KKLHKEPATLI); conditions: not stated
Glu43 = Glu43 (UniProt position 125, LVDTPETKHPK); conditions: not stated
Glu57 = Glu57 (UniProt position 139, EKYGPEASAFT); conditions: not stated
Glu129 = Glu129 (UniProt position 211, HLRKSEAQAKK); conditions: not stated
Glu75 = Glu75 (UniProt position 157, KKIEVEFDKGQ); conditions: not stated
Asp40 = Asp40 (UniProt position 122, RLLLVDTPETK); conditions: not stated
Glu122 = Glu122 (UniProt position 204, PNNTHEQHLRK); conditions: not stated

Q: Which results are given for “Staphylococcal nuclease (SNase), form used for the histidine pKa values (Staphylococcus aureus)”?
A: pKa (His8): 6.52; pKa (His121): 5.30; pKa (His124): 5.73; pKa (His46): 5.86

Q: With “Hen egg-white lysozyme (HEWL, lysozyme C) (Gallus gallus)” as the substance, how does the pKa (Lys97) read?
A: Its pKa is 10.30.

Q: What about the pKa (Lys96) of the same substance?
A: Its pKa is 10.80.

Q: What about the pKa (Asp101) of the same substance?
A: Its pKa is 4.09.

Q: And the pKa (Tyr53)?
A: Its pKa is 12.10.

Q: And the pKa (Asp18)?
A: Its pKa is 2.66.

Q: And the pKa (Lys116)?
A: Its pKa is 10.40.

Q: And the pKa (Lys1)?
A: Its pKa is 10.90.

Q: And the pKa (Tyr20)?
A: The pKa was 10.30.

Q: And the pKa (Lys33)?
A: The pKa was 10.60.

Q: And the pKa (Asp87)?
A: The pKa was 2.07.

Q: What about the pKa (Tyr23) of the same substance?
A: The pKa was 9.80.

Q: What about the pKa (Asp52) of the same substance?
A: Its pKa is 3.68.

Q: And the pKa (His15)?
A: Its pKa is 5.36.

Q: And the pKa (Glu35)?
A: The pKa was 6.20.

Q: And the pKa (Asp66)?
A: The pKa was 0.90.

Q: What about the pKa (Asp119) of the same substance?
A: Its pKa is 3.20.

Q: And the pKa (Cterm129)?
A: Its pKa is 2.75.

Q: And the pKa (Asp48)?
A: The pKa was 1.60.

Q: What about the pKa (Lys13) of the same substance?
A: Its pKa is 10.60.

Q: What about the pKa (Glu7) of the same substance?
A: Its pKa is 2.85.

Q: And the pKa (Nterm1)?
A: Its pKa is 7.90.

Q: With “Staphylococcal nuclease (SNase), form used for the Asp/Glu pKa values (Staphylococcus aureus)” as the substance, how does the pKa (Glu101) read?
A: The pKa was 3.81.

Q: What about the pKa (Glu52) of the same substance?
A: Its pKa is 3.93.

Q: And the pKa (Glu67)?
A: Its pKa is 3.76.

Q: What about the pKa (Glu73) of the same substance?
A: The pKa was 3.31.

Q: What about the pKa (Asp95) of the same substance?
A: The pKa was 2.16.

Q: What about the pKa (Glu135) of the same substance?
A: Its pKa is 3.76.

Q: What about the pKa (Glu10) of the same substance?
A: Its pKa is 2.82.

Q: And the pKa (Glu43)?
A: The pKa was 4.32.

Q: And the pKa (Glu57)?
A: The pKa was 3.49.

Q: What about the pKa (Glu129) of the same substance?
A: Its pKa is 3.75.

Q: And the pKa (Glu75)?
A: The pKa was 3.26.

Q: What about the pKa (Asp40) of the same substance?
A: The pKa was 3.87.

Q: And the pKa (Glu122)?
A: Its pKa is 3.89.
